Values quoted from earlier work as cited in PMC6258349.
Where two headings read alike, the source gives them in different places.

Assays:
[1] = target: chaperone-adhesin FimC-FimH (Escherichia coli) (UniProt P31697)
[2] = target: chaperone-adhesin FimC-FimH (Escherichia coli) (UniProt P31697); remark: listed apart in the source

UniProt P31697, sequence (P31697 37-241, chain 1 of 2): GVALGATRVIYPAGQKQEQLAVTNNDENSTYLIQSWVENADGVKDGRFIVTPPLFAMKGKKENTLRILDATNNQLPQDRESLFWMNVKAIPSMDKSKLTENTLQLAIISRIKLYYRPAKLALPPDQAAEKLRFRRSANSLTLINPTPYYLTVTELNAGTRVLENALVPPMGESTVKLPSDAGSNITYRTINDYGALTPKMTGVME
UniProt P31697, sequence (P08191 22-300, chain 2 of 2, further chain): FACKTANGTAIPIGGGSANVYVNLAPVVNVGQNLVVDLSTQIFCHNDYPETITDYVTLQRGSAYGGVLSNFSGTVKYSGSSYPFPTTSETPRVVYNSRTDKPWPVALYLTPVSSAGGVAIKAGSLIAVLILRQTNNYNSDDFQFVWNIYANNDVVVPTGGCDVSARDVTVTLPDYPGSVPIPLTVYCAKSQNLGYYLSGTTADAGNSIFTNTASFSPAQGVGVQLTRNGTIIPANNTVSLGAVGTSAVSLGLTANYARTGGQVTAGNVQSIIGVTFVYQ

| Kd [1] [nM] | Kd [2] [nM] | Substance |
| --- | --- | --- |
| 40 |  | FimD usher CTD (from UniProt P30130) |
|  | 389 | FimD usher NTD (from UniProt P30130) |
